Measurements from the nanobody polyreactivity screen of Harvey et al. (2022).

Experiment: yeast display, Sf9 membrane polyspecificity reagent, FACS + sequencing; frameworks hold sequencing errors
Summary of the method: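 Genes from sorted yeast were amplified by colony PCR, read by MiSeq 2 × 250 sequencing and filtered on CDR length. These cells carried a synthetic nanobody library in Saccharomyces cerevisiae BJ5465 and were sorted by FACS into low and high (top ~1%) gates on anti-HA and streptavidin fluorescence. Polyreactivity is labelled according to the gate of origin.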

Which “polyreactivity (PSR sort gate)” value does the source give for “QVQLVDSGGGLVQAGGSLRLSCAASGITFWSYAMGWYRPAPGKERELVAGISRRGGSTYYADSVKGRFTISRDNAKNTVYLQMNSLKPEDTAVYYCAARAYPTPVRSFLYTDIVYYWGQGTQVTVSS” here?
Its value is “high polyreactivity”.

For “QVQLVESGGGLVQAGGSLRLTCAASGRIFSHNTMGWYRQAPGKERELVAAISGGGGRTYYADSVKGRFTISRDNAKNTVYLQMKSLKPEDTAVYYCAAVRVSYRSLSKSYYWGQGTQVTVSS”, which “polyreactivity (PSR sort gate)” value is on record?
Its value is “high polyreactivity”.

Which “polyreactivity (PSR sort gate)” value does the source give for “QVQLVESGGGLVQAGGSLRLRCAASGSTFAWYAMGWYRQAPGKESELVAAITQNGGRTYYADSVKGRFTISRDNAKNTVYLQMNSLKPEDTAVYYCANAFIQPGYKYDSWGQVTQVTVSS” here?
The value was “high polyreactivity”.

With “QVQLVESGGGLVQAGGSLRLSCAASGFIFRYYAMGWYRQAPGKERELVAAISRIGGSSYYADSVKGRFTISRDNAKNTVYLQMNSPKPEVTAVYYCAVAEGYYPAYLRDYWGQGTQVTVSS” as the sequence, how does the “polyreactivity (PSR sort gate)” value read?
The value was “high polyreactivity”.

Which “polyreactivity (PSR sort gate)” value does the source give for “QVHLVESGGGLVQAGRSLRLSCAASGLTFGTNPMGWYRQAPGKERELVAAITWRGGSTSYADSVKGRFTISRDNAKNTVYLQMNSLKPEDTAVYYCAVRLRYPGNTFYDWGQGTQVTVSS” here?
The value was “high polyreactivity”.

Which “polyreactivity (PSR sort gate)” value does the source give for “QVQLVESGGGLVQAGGSLSLSCAASGLILSDNAMGWYRQAPGKEREFVASITSSGGSTHYADSVKGRFTISRDNAKNTVYFQMNSLKPEDTAVYYCAKDYYEGDSYPYPGYEYWGQGTQVTVSS” here?
Its value is “low polyreactivity”.

Which “polyreactivity (PSR sort gate)” value does the source give for “QVQLVESGGGLVQAGGSLRLSCAPSGSTFPWNAMGWYRQAPGKERELVAAIRTGGGRTYYADSVKGRFTISRDNAKNTVYLQMNSLKPEDTAVYYCNAYFTYWSQLYYWGQGTQVTVSS” here?
The value was “high polyreactivity”.

With “QVQLVESGGGLVQAGGSLRLSCAASGSTLNYNAMGWYRQAPGKERELVAAISWSGGSTYYADSVKGRFTISRDNAKNTVYLQMNSLKPEDTAVYYCAADQSTVLDVGSWGQGTQVTGSS” as the sequence, how does the “polyreactivity (PSR sort gate)” value read?
Its value is “low polyreactivity”.

For “QVQLVESGGGLVQAGGSLRLSCAASGSTFDYYAMVWYRQAPGKEREFVAAISYSGGSTYYADSVKGRFTISRDNAKNTVYLQMNSLKPEDTAVYYCAAEGYYYNLYYWGQGTEVTVSS”, which “polyreactivity (PSR sort gate)” value is on record?
The value was “high polyreactivity”.

For “QVQLVESGGGLVLAGGSLRLSCAASGSILYYNAMGWYRQAPVKERELVAAITLDGASTYYSDSVKGLFTISRDNAKNTVYLQMNSLKPEDTAGYYCAADYAYWLSGYDYWGQGSQVTVSS”, which “polyreactivity (PSR sort gate)” value is on record?
The value was “low polyreactivity”.

With “QVQLVESGGCLVQAGGSLRLSCAASGLTFKWNTMGWYRQAPGKESELVAAISWRVVSTYYADSVKGRFTISRDNAKNTVYLQMNSLKPEDTAVYYDYWGQGTQVTVSS” as the sequence, how does the “polyreactivity (PSR sort gate)” value read?
Its value is “low polyreactivity”.

Which “polyreactivity (PSR sort gate)” value does the source give for “QVQLVESGGGLVQAGGSLRFSCAASGSTFRKNAMGWYRQAPGKERELFASISISGGRTNYADSVKGRFTISRDHAKNTVYLQLNSLKPEDTAVYDCAATTSPRSARYYYWGQGTQVTVSS” here?
The value was “high polyreactivity”.

For “QVQLVESGGGLVQAGGSLRLSCAASGITFTGNAMGWYRQAPGKERELVAAISNRGGSTYYADSVKGRFTISRDNAKNTVYLQMNSLKPEDTAVYYCRTSTPRRVSGNYWGQGTQVTVTS”, which “polyreactivity (PSR sort gate)” value is on record?
Its value is “high polyreactivity”.

Which “polyreactivity (PSR sort gate)” value does the source give for “QVQLVESGGGLVQAGGSLRLSCAASGRIFAPKAMGWYRQAPGKERELVADINFSGDSTYYADSVKGRFTISRDNAKNTVYLQMNSLKPEDTAVYYCAADISLVSYYYWGQGTQVTVSS” here?
The value was “low polyreactivity”.

Which “polyreactivity (PSR sort gate)” value does the source give for “QVQLVESGGGLVQAGGSLRLSCAASGRIFNYYAMGWYRQAPGKERELVATISRNGGRTYYADSVKGRFTISRDNAKNTVYLQMNSLKPEVTAVYYCATDGLYRYDYWGQGTQVTVSS” here?
Its value is “high polyreactivity”.

For “QVQLVESGGGLVQAGGSLRLSCAASGSTFNIYVMGSYREPPGKERELVAAITTSGRTYYADSVKGRFTISRDNAKNTVYLQMNSLKPEDNAVYYCAAATGTYGRGGYYWGQGTQVTVSS”, which “polyreactivity (PSR sort gate)” value is on record?
The value was “high polyreactivity”.

With “QVQLVESGGGLVQAGGSLRLSCAASGSIFSYYAMGWYRQATGKERELVAAITRGGTTYYAVCVKGRFTISRDNAKNTVYLQMNSLKPDDTAVYYCAVYYYSGTAGYRYGYWGQGTQVTVSS” as the sequence, how does the “polyreactivity (PSR sort gate)” value read?
Its value is “high polyreactivity”.

Which “polyreactivity (PSR sort gate)” value does the source give for “QVQLVESGGGLVQAGGSLRLSCAASGSIFYGYAMGWYRQAPGKERELVAAITWSGGSTYYADSVKGRFTISRDNAKNTVYLQINSLKPEDTAVYYCNAVSTRFRVRTSDYWGQGTQVTVSS” here?
The value was “high polyreactivity”.

For “QVQLVESVGGLVQAGGSLRLSCAASGRTVGGNAMGWYRQAPGKERELVAAINRSGGTTYYADSVKGRFTISRDNAKNTVYLQMNSLKPEDTAVYYCAARRTVSATRMGYWGQGTQVTVSS”, which “polyreactivity (PSR sort gate)” value is on record?
Its value is “high polyreactivity”.

Which “polyreactivity (PSR sort gate)” value does the source give for “QVKLVESGGGLVPAGGSLRLSCAASGNIFVNYAMRWYRQAPGKERELVASINYNGGITYYADSVKGRFTISRDNAKNTVYLQMNSLKPEDTAVYDCDKDGGGLLRWYTDEYDYWGQGTQVTVSS” here?
Its value is “low polyreactivity”.

With “QVQLVESGGGLVQAGGSLRLSCAASGRTFCSYTKAWYRQAPGKERELVAAISSGGSTTYADSVKGRFTISRDNAKNTVYLQLNSLKPEDTAVYYCATRAVWSSWGRRYDPWGQGTQVTVSS” as the sequence, how does the “polyreactivity (PSR sort gate)” value read?
Its value is “high polyreactivity”.

Which “polyreactivity (PSR sort gate)” value does the source give for “QVQLVESGGGLVQAGGSLRLSCAASGSTFSHNAMGWSIQAPWKERELLASISSGANTYYADSVKGRFTISRDNAKNTVYLHMNSLKPEVTAVYYCAAGAHAYDHYSWFYFRMHYWGQGTQVTVSS” here?
Its value is “low polyreactivity”.

With “QVQLVESGGGIVQAGGSLRLSCAASGRTFRGNAMGWSRQAPVKERELVATIRRPGGSTYYADSVKGRFTISRDNAKNTVYLQMNSLKPEDTAVYYCNALNYYLYDKTFDYWGQGTKVTVSS” as the sequence, how does the “polyreactivity (PSR sort gate)” value read?
Its value is “high polyreactivity”.

For “QVQLVESGGGLVQAGGSLRLSCAASGRTFRTNAMGWYRQAPGKERELVAAITSDGTYYADSVKGRFTISRDNAKNTVYLQMNSLKPEDTAVYYCNVDDRETRDDYWGQGTQVTVSS”, which “polyreactivity (PSR sort gate)” value is on record?
The value was “low polyreactivity”.

Which “polyreactivity (PSR sort gate)” value does the source give for “QVQHVESGGGLVQAGGSLRLSCAASGSTFVYYAMGWYRQPPGKERELVAVITRGGRTYYADSVKGRFTISRDNAKNTVYLQMNSLKPEDTAVYYCNKVTPHYHDTGLDYWGQGTQVTVSS” here?
Its value is “high polyreactivity”.

With “QVQLVESGGGLVQAGGRLRLSCAASGSTFRPYAMGWYRQAPGKERELVAAITFNGDTYADSVKGRFTISRDNAKNTVYLQMNSLKPEDTAVYYCAARKWYYYLRPWTSVGGYYWGQGTQVTVSS” as the sequence, how does the “polyreactivity (PSR sort gate)” value read?
Its value is “high polyreactivity”.

For “QVQLVESVGGLVQAGGSLRLSCAASGITFGYNAMGWYRQAPGKERELVASISYSGDSTYYADSVKGRFTISRDNAKNSVYLQMNSLKPEDTGVYYCAAGRQVLKRRYDYWGQGTQVTVSS”, which “polyreactivity (PSR sort gate)” value is on record?
The value was “low polyreactivity”.

With “QVQLVESGGGLVQAGGSLRLSCAASGSIFYYNAMGWYRQAPGKESELVAASSRRVGNTYYADSVKGRFTISRDNAKNTVYLQMNSLKPEDTAVYYCNTDRSSRPSYDYWGQGTQVTVSS” as the sequence, how does the “polyreactivity (PSR sort gate)” value read?
Its value is “high polyreactivity”.

For “QVQLVESGGGLVQAGGSLRISCAASGITFRYYAMGWSIQAPGKERELVAAITCNGGGTYADSVKGRFTISRDNAKYTVYLEMNSLKPEDTAVYSCSADYGRRWGYDYWGQGTQVTVSS”, which “polyreactivity (PSR sort gate)” value is on record?
Its value is “low polyreactivity”.

Which “polyreactivity (PSR sort gate)” value does the source give for “QVQLVESGGGLVQAGGSLRLSCAASGYIFPAYGMGWYIQAPGKERELVAAISWSTGSTYYADSVKGRFTISRDNAKNTVYLQMNSLKPEDTAVYYCDAGRPRRVPDHWYIYYYWGQATQVTVSS” here?
Its value is “low polyreactivity”.

With “QVQLVESGGGLVQAGGSLRLSCAASGSIFLAKAMGWYRQAPGKERELVAAINYADSVKGRFTISRDNAKNTVYLQMNSLKPEDTAVYYCYSKYDYWGQGTQVTVSS” as the sequence, how does the “polyreactivity (PSR sort gate)” value read?
The value was “low polyreactivity”.

For “QVQLVESGGGLVQAGGSLRLSCAASGSTLAIYAMGWYRQAPGKEREWVAAISRSGGTTYYADSVKGRFTISRDNAKNTVYLQMNSLKPEDTAVYYCYPYFWYPDGYTYDYWGQGTQVTVSS”, which “polyreactivity (PSR sort gate)” value is on record?
Its value is “high polyreactivity”.

With “QVQLVESGGGLVQAGGSLRLSCAASGRIFYWYAMGWYRQAPGKERELVAAISGSDGSTYYADSVKGRFTISRDNAKNTVYLQMNSLKPEDTAVYYCADEGSYPRMDYWGQGTQVTVSS” as the sequence, how does the “polyreactivity (PSR sort gate)” value read?
The value was “low polyreactivity”.

Which “polyreactivity (PSR sort gate)” value does the source give for “QVQLVESGGGLVQAGGRLRLSCAASGYIFYYNAIGWYRQAPGKERELVAAITSDDSTYYADSVKGRFTISRDNAKNTVYLQMNSLKPEDTAVYYCNAVRYGHWYDYWGQGTQVTVSS” here?
The value was “low polyreactivity”.

With “QVQLVESGGGLVQAGGSLRLSCAASGITFYYNAMGWYRQAPGKERELVAAIRSAGSTYYADSVKGRFTISRDNAKNTVYLQMNSLKPEDTAVYYCAAEDGTTDQVRVYWIMDYWGQGTQVTVSS” as the sequence, how does the “polyreactivity (PSR sort gate)” value read?
Its value is “low polyreactivity”.

Which “polyreactivity (PSR sort gate)” value does the source give for “QVQLVESGGGLVQAGGSLRLSCAASGRTFAPYALGWYRQAPRKERELVAAITNGGSTSYADSVKGRFTISRDNAKNTVYLQMNSLKPEDTAVYYCAADANRYHRQRWSPYKMYYWGQGTQVTVSS” here?
Its value is “low polyreactivity”.

Which “polyreactivity (PSR sort gate)” value does the source give for “QVQLVESGGGLVQAGGSLRLSCAASGRIFYFNAMGWYRQAPGKEWELVAVINSSGSTDYADSVKGRFTISRDNAKNTVYLQMNSLKPEDTAVYYCAAEVTPSGYGYWGQGTQVTVSS” here?
The value was “low polyreactivity”.

For “QVQLVESGGVLVQAGGSLRLRCAASGRIFSRYTMGWYRQAPGKERELVAAIRNTGSTNYADSVKGRFTISRDNAKNTVYLQMNSLKPEDTAVYYCNARTAYGAYHYYYPQRMDYWGQGTQVTVSS”, which “polyreactivity (PSR sort gate)” value is on record?
The value was “high polyreactivity”.

For “QVQLVESGGGLVQAGGSLSLSCAATGSTFWWYAMGWYRQAPGKEREFVAAIRWSSGSTYYADSVKGRFTISRDNAKNTVYLQMNSLKPEDTAVYYCATDDTSNVYVDLDYWGQGTQVTVSS”, which “polyreactivity (PSR sort gate)” value is on record?
Its value is “high polyreactivity”.

For “QVQLVESGAGLVQAGGSLRLSCAASGFTFDYYAMGWYRQAPGKESELVATINGASSTNYADSVKGRFTISRDNAKNTVYLQMNSLKPEDTAVYDCNARYYGPDFVLAYDYWGQGTQVTVSS”, which “polyreactivity (PSR sort gate)” value is on record?
Its value is “low polyreactivity”.

Which “polyreactivity (PSR sort gate)” value does the source give for “QVQLVESGGGLVQAGGSLRLSCAASGRTFKGYAMGWYRQAPGKEREFVATITSRGDRTYYADSVKGRFTISRDNAKNTVSLQMNSLKPEDTAVYYCNARYYWKQAADYNYWGQGTQVTVSS” here?
Its value is “low polyreactivity”.
